Data reported in patent US20170190749A1.

T1: PhoCle0.3 large fragment after photocleavage (~20 kDa remainder of the PhoCle domain)
T1 chain: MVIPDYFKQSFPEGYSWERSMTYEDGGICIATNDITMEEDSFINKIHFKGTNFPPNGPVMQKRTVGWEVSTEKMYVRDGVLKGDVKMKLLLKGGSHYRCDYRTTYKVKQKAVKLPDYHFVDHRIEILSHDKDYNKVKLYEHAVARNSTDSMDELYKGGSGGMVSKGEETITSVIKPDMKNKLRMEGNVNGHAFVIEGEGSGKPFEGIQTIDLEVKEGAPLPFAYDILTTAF

T2: PhoCle0.1 large fragment after photocleavage (remainder of the protein)
T2 chain: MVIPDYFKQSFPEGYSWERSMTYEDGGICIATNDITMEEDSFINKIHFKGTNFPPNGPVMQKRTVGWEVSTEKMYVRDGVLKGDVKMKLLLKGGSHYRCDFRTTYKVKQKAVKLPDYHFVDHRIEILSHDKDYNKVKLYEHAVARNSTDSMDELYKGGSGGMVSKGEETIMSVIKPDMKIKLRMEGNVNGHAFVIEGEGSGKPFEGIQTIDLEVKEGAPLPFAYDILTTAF


Assays:
[1] = target: T1, PhoCle0.3 large fragment after …; test: decay of red fluorescence/absorbance following photocleavage
[2] = target: T2, PhoCle0.1 large fragment after …; test: spectroscopic and SDS-PAGE analyses of the protein before and after illumination

| t0.5 of peptide dissociation after photocleavage [1] | t0.5 of spontaneous dissociation after photocleavage [2] | Binder |
| --- | --- | --- |
| 120 s |  | HYGNRVFTKYPR (modifications not checked) [PhoCle0.3 small chromophore-containing peptide fragment after photocleavage] |
|  | 500 s | HYGNRVFTKYPR (modifications not checked) [PhoCle0.1 small chromophore-containing peptide fragment after photocleavage] |
